Assay results from publication PMC10397247.
Read-outs that look alike come from different tables or passages of the source.

Legend:
[1] = target: T1, P6-AA-12HAA-R; assay: two-hybrid library CCmax; settings: mean of both orientations;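 note: natural log of median RNA to DNA barcode read ratio; higher means stronger binding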
T1 chain: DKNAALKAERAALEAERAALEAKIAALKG

[2] = target: T2, P6-AA-12HAA-Y; assay: two-hybrid library CCmax;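 note: natural log of median RNA to DNA barcode read ratio; higher means stronger binding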
T2 chain: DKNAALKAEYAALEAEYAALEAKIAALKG

[3] = target: T3, P6-AA-12HAA-D; assay: two-hybrid library CCmax; settings: mean of both orientations;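 note: natural log of median RNA to DNA barcode read ratio; higher means stronger binding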
T3 chain: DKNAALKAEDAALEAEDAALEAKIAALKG

[4] = target: T4, P6-AA-12HAA-T; assay: two-hybrid library CCmax; settings: mean of both orientations;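 note: natural log of median RNA to DNA barcode read ratio; higher means stronger binding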
T4 chain: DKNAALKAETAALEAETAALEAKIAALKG

[5] = target: T5, P6-AA-12HAA-K; assay: two-hybrid library CCmax; settings: mean of both orientations;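 note: natural log of median RNA to DNA barcode read ratio; higher means stronger binding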
T5 chain: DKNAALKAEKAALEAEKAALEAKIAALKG

[6] = target: T6, P6-AA-12HAA-L; assay: two-hybrid library CCmax; settings: mean of both orientations;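 note: natural log of median RNA to DNA barcode read ratio; higher means stronger binding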
T6 chain: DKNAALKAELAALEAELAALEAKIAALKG

[7] = target: T7, P6-AA-1HAA-N; assay: two-hybrid library CCmax; settings: mean of both orientations
T7 chain: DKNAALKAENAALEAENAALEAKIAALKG

[8] = target: T8, P6-AA-12HAA-S; assay: two-hybrid library CCmax
T8 chain: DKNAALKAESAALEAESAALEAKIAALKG

[9] = target: T9, P6-AA-12HAA-H; assay: two-hybrid library CCmax; settings: mean of both orientations
T9 chain: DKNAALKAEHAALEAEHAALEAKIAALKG

[10] = target: T10, P6-AA-12HAA-E; assay: two-hybrid library CCmax; settings: mean of both orientations
T10 chain: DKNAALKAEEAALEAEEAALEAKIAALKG

[11] = target: T11, P6-AA-12HAA-V; assay: two-hybrid library CCmax; settings: mean of both orientations
T11 chain: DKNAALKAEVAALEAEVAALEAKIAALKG

[12] = target: T12, 4H2713-AA; assay: two-hybrid library CCmax; settings: mean of both orientations
T12 chain: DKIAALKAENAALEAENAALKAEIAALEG

[13] = target: T13, 4H3628-AA; assay: two-hybrid library CCmax; settings: mean of both orientations
T13 chain: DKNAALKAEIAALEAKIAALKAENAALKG

[14] = target: T14, 4H391-AA; assay: two-hybrid library CCmax; settings: mean of both orientations
T14 chain: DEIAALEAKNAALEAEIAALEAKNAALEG

[15] = target: T15, 4H2283-AA; assay: two-hybrid library CCmax
T15 chain: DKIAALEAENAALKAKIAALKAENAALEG

[16] = target: T16, 4H3066-AA; assay: two-hybrid library CCmax; settings: mean of both orientations
T16 chain: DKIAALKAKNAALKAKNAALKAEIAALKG

[17] = target: T17, 4H3591-AA; assay: two-hybrid library CCmax; settings: mean of both orientations
T17 chain: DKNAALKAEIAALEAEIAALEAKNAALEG

[18] = target: T18, 4H3939-AA; assay: two-hybrid library CCmax; settings: mean of both orientations
T18 chain: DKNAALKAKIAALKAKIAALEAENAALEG

[19] = target: T19, 4H3709-AA; assay: two-hybrid library CCmax; settings: mean of both orientations
T19 chain: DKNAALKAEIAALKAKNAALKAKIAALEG

[20] = target: T20, 4H3029-AA; assay: two-hybrid library CCmax; settings: mean of both orientations
T20 chain: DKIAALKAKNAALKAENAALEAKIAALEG

[21] = target: T21, 4H3121-AA; assay: two-hybrid library CCmax; settings: mean of both orientations
T21 chain: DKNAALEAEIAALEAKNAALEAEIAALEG

[22] = target: T22, 4H3446-AA; assay: two-hybrid library CCmax; settings: mean of both orientations
T22 chain: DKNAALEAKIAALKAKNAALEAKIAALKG

[23] = target: T23, 4H3417-AA; assay: two-hybrid library CCmax; settings: mean of both orientations
T23 chain: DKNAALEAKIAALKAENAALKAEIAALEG

[24] = target: T24, 4H971-AA; assay: two-hybrid library CCmax; settings: mean of both orientations
T24 chain: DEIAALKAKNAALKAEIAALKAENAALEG

[25] = target: T25, 4H428-AA; assay: two-hybrid library CCmax; settings: mean of both orientations
T25 chain: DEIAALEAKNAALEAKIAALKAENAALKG

[26] = target: T26, 4H3920-AA; assay: two-hybrid library CCmax; settings: mean of both orientations
T26 chain: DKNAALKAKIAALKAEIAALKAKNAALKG

[27] = target: T27, 4H2742-AA; assay: two-hybrid library CCmax; settings: mean of both orientations
T27 chain: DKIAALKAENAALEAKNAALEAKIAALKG

[28] = target: T28, 4H3666-AA; assay: two-hybrid library CCmax; settings: mean of both orientations
T28 chain: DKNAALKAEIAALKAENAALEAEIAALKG

[29] = target: T29, 4H2991-AA; assay: two-hybrid library CCmax; settings: mean of both orientations
T29 chain: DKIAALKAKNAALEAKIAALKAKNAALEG

[30] = target: T30, 4H3102-AA; assay: two-hybrid library CCmax; settings: mean of both orientations
T30 chain: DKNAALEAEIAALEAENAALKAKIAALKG

[31] = target: T31, 4H478-AA; assay: two-hybrid library CCmax; settings: mean of both orientations
T31 chain: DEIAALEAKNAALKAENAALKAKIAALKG

[32] = target: T32, 4H656-AA; assay: two-hybrid library CCmax; settings: mean of both orientations
T32 chain: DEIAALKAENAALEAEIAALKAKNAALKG

[33] = target: T33, 4H497-AA; assay: two-hybrid library CCmax; settings: mean of both orientations
T33 chain: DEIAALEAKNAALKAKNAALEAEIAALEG

[34] = target: T34, 4H2948-AA; assay: two-hybrid library CCmax; settings: mean of both orientations
T34 chain: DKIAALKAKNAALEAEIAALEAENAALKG

[35] = target: T35, 4H675-AA; assay: two-hybrid library CCmax; settings: mean of both orientations
T35 chain: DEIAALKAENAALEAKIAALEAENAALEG

[36] = target: T36, 4H56-bN; assay: two-hybrid library CCNG1
T36 chain: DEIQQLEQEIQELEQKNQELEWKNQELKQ

[37] = target: T37, 4H2931-bN; assay: two-hybrid library CCNG1
T37 chain: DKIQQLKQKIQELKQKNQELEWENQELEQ

[38] = target: T38, 4H3364-bN; assay: two-hybrid library CCNG1
T38 chain: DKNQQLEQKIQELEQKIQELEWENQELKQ

[39] = target: T39, 4H949-bN; assay: two-hybrid library CCNG1
T39 chain: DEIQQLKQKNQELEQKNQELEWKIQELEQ

[40] = target: T40, 4H796-bN; assay: two-hybrid library CCNG1
T40 chain: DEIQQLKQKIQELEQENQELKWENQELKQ

[41] = target: T41, 4H932-bN; assay: two-hybrid library CCNG1
T41 chain: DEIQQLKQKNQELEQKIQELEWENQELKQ

[42] = target: T42, 4H730-bN; assay: two-hybrid library CCNG1
T42 chain: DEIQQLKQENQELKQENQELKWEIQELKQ

[43] = target: T43, 4H3041-bN; assay: two-hybrid library CCNG1
T43 chain: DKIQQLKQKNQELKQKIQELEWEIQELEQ

[44] = target: T44, 4H3297-bN; assay: two-hybrid library CCNG1
T44 chain: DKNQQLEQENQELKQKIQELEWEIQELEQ

[45] = target: T45, 4H3381-bN; assay: two-hybrid library CCNG1
T45 chain: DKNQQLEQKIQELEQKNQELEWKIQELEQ

[46] = target: T46, 4H349-bN; assay: two-hybrid library CCNG1
T46 chain: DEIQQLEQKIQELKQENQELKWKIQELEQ

With DENAALEAKKAALKAKKAALKAEIAALEG [P5-AA-12HAA-K] as the binder, how does the interaction score [1] read?
The interaction score was -1.57.

What about the interaction score ([2]; mean of both orientations) of the same binder?
The interaction score was -1.01.

And the interaction score [3]?
The interaction score was -1.9.

And the interaction score [4]?
Its interaction score is -0.798.

What about the interaction score [5] of the same binder?
The interaction score was -1.5.

What about the interaction score [6] of the same binder?
The interaction score was 1.03.

What about the interaction score [7] of the same binder?
The interaction score was -1.37.

What about the interaction score [8] of the same binder?
Its interaction score is -2.76.

And the interaction score [9]?
The interaction score was -1.46.

What about the interaction score [10] of the same binder?
The interaction score was -1.48.

And the interaction score [11]?
Its interaction score is 2.22.

For DKIAALEAENAALKAKIAALKAENAALEG [4H2283-AA], which interaction score [12] is on record?
The interaction score was -1.19.

And the interaction score [13]?
Its interaction score is -1.32.

What about the interaction score [14] of the same binder?
The interaction score was -0.595.

What about the interaction score [15] of the same binder?
Its interaction score is 1.25.

And the interaction score [16]?
The interaction score was -1.63.

What about the interaction score [17] of the same binder?
The interaction score was -1.46.

And the interaction score [18]?
The interaction score was -1.94.

And the interaction score [19]?
Its interaction score is -1.11.

And the interaction score [20]?
The interaction score was -1.74.

And the interaction score [21]?
Its interaction score is -0.934.

What about the interaction score [22] of the same binder?
The interaction score was -1.15.

What about the interaction score [23] of the same binder?
Its interaction score is 1.63.

What about the interaction score [24] of the same binder?
Its interaction score is -0.878.

And the interaction score [25]?
The interaction score was -0.691.

What about the interaction score [26] of the same binder?
Its interaction score is -1.54.

And the interaction score [27]?
Its interaction score is -1.21.

What about the interaction score [28] of the same binder?
Its interaction score is -0.868.

What about the interaction score [29] of the same binder?
Its interaction score is -1.95.

What about the interaction score [30] of the same binder?
Its interaction score is 0.17.

And the interaction score [31]?
The interaction score was -1.52.

What about the interaction score [32] of the same binder?
The interaction score was 1.84.

What about the interaction score [33] of the same binder?
Its interaction score is -1.45.

And the interaction score [34]?
The interaction score was 0.785.

What about the interaction score [35] of the same binder?
The interaction score was -0.967.

Which results are given for DENAALEAKVAALKAKVAALKAEIAALEG [P5-AA-12HAA-V]?
interaction score [1]: 1.94; interaction score ([2]; mean of both orientations): 1.09; interaction score [3]: -1.5; interaction score [4]: 1.87; interaction score [5]: 1.73; interaction score [6]: 2.29; interaction score [7]: -0.708; interaction score ([8]; mean of both orientations): 1.18; interaction score [9]: 1.34; interaction score [10]: 1.61; interaction score [11]: 2.1

Which results are given for DENAALEAKSAALKAKSAALKAEIAALEG [P5-AA-12HAA-S]?
interaction score [1]: -1.81; interaction score ([2]; mean of both orientations): -0.94; interaction score [3]: -1.65; interaction score [4]: -1.48; interaction score [5]: -1.73; interaction score [6]: 0.323; interaction score [7]: -1.02; interaction score ([8]; mean of both orientations): -1.65; interaction score [9]: -1.82; interaction score [10]: -1.88; interaction score [11]: 1.55

How did the interaction score [1] turn out when DENAALEAKLAALKAKLAALKAEIAALEG [P5-AA-12HAA-L] was run?
The interaction score was -0.243.

And the interaction score [2]?
Its interaction score is 2.26.

And the interaction score [3]?
The interaction score was -1.57.

And the interaction score [4]?
The interaction score was 1.66.

And the interaction score [5]?
The interaction score was 0.645.

And the interaction score [6]?
The interaction score was 1.74.

What about the interaction score [7] of the same binder?
Its interaction score is -0.665.

And the interaction score ([8]; mean of both orientations)?
The interaction score was -0.666.

And the interaction score [9]?
The interaction score was -0.352.

And the interaction score [10]?
The interaction score was 0.451.

What about the interaction score [11] of the same binder?
Its interaction score is 2.39.

DKIQQLKQKIQELKQKNQELEWENQELEQ [4H2931-bN] was tested. Which interaction score [36] did it give?
The interaction score was 0.0366.

What about the interaction score [37] of the same binder?
The interaction score was -0.656.

And the interaction score [38]?
Its interaction score is -0.721.

What about the interaction score [39] of the same binder?
Its interaction score is -0.75.

What about the interaction score [40] of the same binder?
Its interaction score is -1.66.

What about the interaction score [41] of the same binder?
Its interaction score is -0.619.

And the interaction score [42]?
Its interaction score is -1.27.

And the interaction score [43]?
The interaction score was -0.593.

What about the interaction score [44] of the same binder?
Its interaction score is -0.835.

And the interaction score [45]?
Its interaction score is -1.1.

What about the interaction score [46] of the same binder?
The interaction score was -1.08.
